Measured values as given in patent US6627200.

Target: CD137 ligand expressed by the monocytes (human) (UniProt P41273)
Test: cell-based or functional assay

Chain of UniProt P41273 (P41273 whole entry): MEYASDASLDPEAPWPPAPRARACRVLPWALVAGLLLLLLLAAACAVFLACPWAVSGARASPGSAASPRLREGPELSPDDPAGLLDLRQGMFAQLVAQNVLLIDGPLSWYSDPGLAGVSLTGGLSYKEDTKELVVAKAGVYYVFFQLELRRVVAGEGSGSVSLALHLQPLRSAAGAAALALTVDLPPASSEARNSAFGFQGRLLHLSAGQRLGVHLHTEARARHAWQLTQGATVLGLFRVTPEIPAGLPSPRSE

“Recombinant CD137-Fc protein, consisting of the extracellular domain of human CD137 and the constant domain of human immunoglobulin G1 (Fc) (from UniProt Q07011 18-186) (Fc fusion)” was tested, and the 3H-thymidine incorporation of peripheral monocytes on immobilized CD137-Fc, against control cells was greater than 30 fold.
